From patent US20220175942A1 (published 2022)
Residue numbers refer to the chain shown, from its start.

T1: CCL22_HUMAN (human, UniProt O00626 25-93)
T1 chain: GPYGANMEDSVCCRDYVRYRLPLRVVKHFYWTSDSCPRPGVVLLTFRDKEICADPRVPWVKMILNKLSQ

T2: CCL3_HUMAN (human, UniProt P10147 24-92)
T2 chain: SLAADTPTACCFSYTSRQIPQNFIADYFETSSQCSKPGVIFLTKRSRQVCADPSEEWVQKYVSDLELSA

T3: CCL4 (human, UniProt P13236 24-92)
T3 chain: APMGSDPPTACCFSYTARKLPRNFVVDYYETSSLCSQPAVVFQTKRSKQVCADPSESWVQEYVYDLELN

T4: CCL18_HUMAN (human, UniProt P55774 21-89)
T4 chain: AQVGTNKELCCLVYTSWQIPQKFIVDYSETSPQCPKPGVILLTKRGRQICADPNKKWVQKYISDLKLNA

B1: P546_AMBCA (other)
chain: ENTQQEEEDYDYGTDTCPFPVLANKTNKAKFVGCHQKCNGGDQKLTDGTACYVVERKVWDRMTPMLWYSCPLGECKNGVCEDLRKKEECRKGNGEEK
B2: P974_AMBCA (other)
chain: B1 chain with E8Q, S69E, E88D
B3: P1182_AMBMA (other)
chain: EPKDDNDYGGGCPFVVLGNGTHAKPAGCSHLCNGAPETLDNIECYNVTEEVAKRMTPGIPYACWLGWCNKGECKRGNRTEVCYRGSEEE
B4: P1180_AMBTR (other)
chain: EEPKDGYDYTEGCPFVVLGNGTHAKPAGCSHLCNGAPETLDDNMECYNVTEEVAKRMTPDIPYTCWLGWCSKGECKRDNRTEVCYRGSERE
B5: P467_RHIPU (other)
chain: AEKSLDSDSSGEDYELWTQGCPFLVAENRTGFGTTVSCQHNCNGAIEKVPEGEPCYTIGEDGLGRMKLNLPYNCSLGECSGGVCVPNGRSDVCFKRTWEENNKAMA
B6: P1181_AMBMA (other)
chain: EEREDDNDYGGGCPFVVLGNGTHAKPAGCSHLCNGAPETLDNIECYNVTEEVAKRMTPDIPYTCWLGWCSKGECKRDNRTEVCYRGSERE
B7: P1183_AMBTR (other)
chain: EAPKDDFEYDGGCPFVVLDNGTHVKPAGCSHLCNGAPETLDNIECYNVTEEVAKRMTPGIPYACWLGWCSKGECKRDNRTEVCYRGSEEE
B8: P985_AMBPA (other)
chain: DEESEELGASTDVDYEELDANCTCPAPALTSTRNNKHYPLGCIYNCSSYNCTIPDGTPCYVLTLGEVKEHLQIGSTVPNCTCGLCRNGTCVSNGTVEECFAVEEIEET
B9: P983_AMBPA (other)
chain: EDTGTEDDFDYGNTGCPFPVLGNYKSNMTKPVGCKNKCGSGYEVLNDTTPCYVIDQKVFNNMVPLRQYSKCPLGFCENGECKPNDQAEDCYKGREEQK
B10: P672_RHIPU (other)
chain: VCEVSEQEGVGEDNATEDEDYEDFFKPVTCYFANSTVGPLRPPNCTVVCTNNTAWWNDTKSDGGHCYSEYRPEKRTHSREIYNCTIGVCGNGTCIANHTYADCW
B11: CCL5_HUMAN (ligand)
chain: SPYSSDTTPCCFAYIARPLPRAHIKEYFYTSGKCSNPAVVFVTRKNRQVCANPEKKWVREYINSLEMS
B12: CCL17_HUMAN (ligand)
chain: ARGTNVGRECCLEYFKGAIPLRKLKTWYQTSEDCSRDAIVFVTVQGRAICSDPNNKRVKNAVKYLQSLERS
B13: CCL15_HUMAN (ligand)
chain: QFTNDAETELMMSKLPLENPVVLNSFHFAADCCTSYISQSIPCSLMKSYFETSSECSKPGVIFLTKKGRQVCAKPSGPGVQDCMKKLKPYSI
B14: CCL1_HUMAN (ligand)
chain: KSMQVPFSRCCFSFAEQEIPLRAILCYRNTSSICSNEGLIFKLKRGKEACALDTVGWVQRHRKMLRHCPSKRK
B15: CCL19_HUMAN (ligand)
chain: GTNDAEDCCLSVTQKPIPGYIVRNFHYLLIKDGCRVPAVVFTTLRGRQLCAPPDQPWVERIIQRLQRTSAKMKRRSS
B16: CCL8_HUMAN (ligand)
chain: QPDSVSIPITCCFNVINRKIPIQRLESYTRITNIQCPKEAVIFKTKRGKEVCADPKERWVRDSMKHLDQIFQNLKP
B17: CCL11_HUMAN (ligand)
chain: not shown
B18: CCL4_HUMAN (ligand)
chain: T3 chain
B19: P983_AMBCA (other)
chain: B9 chain

Molecular target: T1, CCL22_HUMAN
Assay: BLI
Work on B1 yielded a Kd of 27 nM.
For B2, the Kd was 16.8 nM.

What follows are binders tested against CCL13_HUMAN (assay: BLI).
Work on B3 yielded a Kd of 50 nM.
B1 showed a Kd of 13.1 nM.
With B4 the Kd was 8.96 nM.
Binder B5 has a Kd of 2.56 nM.
In the case of B2, the Kd is reported as 22.9 nM.
B6 was tested, and the Kd was 19 nM.
Work on B7 yielded a Kd of 5.67 nM.
Binder B8 has a Kd of 89 nM.
For B9, the Kd was 17.3 nM.

The binders below were run against CCL7_HUMAN (assay: BLI).
In the case of B3, the Kd is reported as 29.2 nM.
Work on B1 yielded a Kd of 90 nM.
B4 showed a Kd of 98 nM.
B5 gave a Kd of 2.15 nM.
B2 gave a Kd of 41.2 nM.
B10 showed a Kd of 16.1 nM.
B6 was tested, and the Kd was 35 nM.
Binder B7 has a Kd of 5.38 nM.
B8 gave a Kd of 61.4 nM.
For B9, the Kd was 32.1 nM.

Each binder was assayed against CCL3L1_HUMAN (assay: BLI).
B3 gave a Kd of 63.4 nM.
With B1 the Kd was 14.7 nM.
For B4, the Kd was 2.19 nM.
In the case of B5, the Kd is reported as 0.524 nM.
B2 was tested, and the Kd was 13.1 nM.
With B10 the Kd was 2.7 nM.
Binder B6 has a Kd of 100 nM.
Binder B7 has a Kd of 110 nM.
B8 was tested, and the Kd was 45.8 nM.
For B9, the Kd was 2.08 nM.

The binders below were run against CCL16_HUMAN (assay: BLI).
For B1, the Kd was 6.67 nM.
For B5, the Kd was 14.1 nM.
B2 was tested, and the Kd was 11 nM.
B10 showed a Kd of 3.29 nM.
In the case of B8, the Kd is reported as 44.8 nM.

What follows are binders tested against CCL14_HUMAN (assay: BLI).
B1 showed a Kd of 28.2 nM.
B4 was tested, and the Kd was 4.4 nM.
B5 showed a Kd of 4.13 nM.
Binder B2 has a Kd of 49.1 nM.
Work on B10 yielded a Kd of 5.5 nM.
Binder B6 has a Kd of 47 nM.
B9 was tested, and the Kd was 81 nM.

Each binder was assayed against CCL4L1_HUMAN (assay: BLI).
B1 showed a Kd of 8.87 nM.
In the case of B4, the Kd is reported as 19.5 nM.
In the case of B5, the Kd is reported as 4.72 nM.
In the case of B2, the Kd is reported as 23.2 nM.
B6 was tested, and the Kd was 13.5 nM.
Work on B7 yielded a Kd of 48.4 nM.
Work on B8 yielded a Kd of 20.6 nM.
B9 gave a Kd of 2.86 nM.

Each binder was assayed against CCL24_HUMAN (assay: BLI).
B8 showed a Kd of 40.8 nM.

These binders were tested against CCL23_HUMAN (assay: BLI).
For B10, the Kd was 10 nM.

The binders below were run against EVASIN4 (assay: -; previously described evasin).
Binder B11 has a Kd of 0.09 nM.
With B12 the Kd was 0.61 nM.
In the case of B13, the Kd is reported as 2.31 nM.
Binder B14 has a Kd of 0.2 nM.
B15 showed a Kd of 0.14 nM.
B16 showed a Kd of 0.25 nM.
With B17 the Kd was 0.34 nM.

These binders were tested against EVASIN1 (assay: -; previously described evasin).
With B18 the Kd was 0.5 nM.

These binders were tested against B17 (assay: BLI).
B3 showed a Kd of 56 nM.
Binder B1 has a Kd of 8.7 nM.
B4 showed a Kd of 32.5 nM.
Binder B5 has a Kd of 1.4 nM.
B2 was tested, and the Kd was 17 nM.
For B6, the Kd was 19.5 nM.
In the case of B7, the Kd is reported as 8.47 nM.
Binder B8 has a Kd of 8 nM.
B19 showed a Kd of 18 nM.

Molecular target: B14
Assay: BLI
For B3, the Kd was 74 nM.
For B1, the Kd was 160 nM.
Work on B5 yielded a Kd of 53.4 nM.
Work on B2 yielded a Kd of 70.5 nM.
Work on B8 yielded a Kd of 8.32 nM.

Molecular target: B11
Assay: BLI
For B5, the Kd was 7.67 nM.
B8 gave a Kd of 3.52 nM.

Molecular target: T2, CCL3_HUMAN
Assay: BLI
For B3, the Kd was 9.46 nM.
Work on B1 yielded a Kd of 14.5 nM.
Binder B4 has a Kd of 1.07 nM.
B5 showed a Kd of 0.363 nM.
Binder B2 has a Kd of 7.97 nM.
B10 was tested, and the Kd was 2.6 nM.
B6 gave a Kd of 3.29 nM.
Work on B8 yielded a Kd of 8.9 nM.
With B19 the Kd was 3.51 nM.

These binders were tested against CCL2_HUMAN (human, UniProt P13500 24-99) (assay: BLI).
CCL2_HUMAN, sequence (P13500 24-99): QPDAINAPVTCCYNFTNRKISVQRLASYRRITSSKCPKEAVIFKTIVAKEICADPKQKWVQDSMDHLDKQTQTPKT
B3 gave a Kd of 5.39 nM.
B1 showed a Kd of 83 nM.
With B4 the Kd was 53 nM.
Work on B5 yielded a Kd of 0.001 nM.
With B2 the Kd was 93 nM.
For B10, the Kd was 9.09 nM.
With B6 the Kd was 2.21 nM.
For B7, the Kd was 11.9 nM.
With B8 the Kd was 16.8 nM.
B19 gave a Kd of 13.9 nM.

Molecular target: T3, CCL4
Assay: BLI
Work on B3 yielded a Kd of 92.4 nM.
With B1 the Kd was 26.6 nM.
B4 showed a Kd of 66 nM.
B5 showed a Kd of 13.6 nM.
For B2, the Kd was 30.2 nM.
For B6, the Kd was 53 nM.
B7 gave a Kd of 78.3 nM.
B8 was tested, and the Kd was 7.47 nM.
Binder B19 has a Kd of 8.03 nM.

Molecular target: B13
Assay: BLI
Binder B10 has a Kd of 31.5 nM.

Molecular target: T4, CCL18_HUMAN
Assay: BLI
B1 showed a Kd of 16 nM.
B4 gave a Kd of 5.78 nM.
B5 was tested, and the Kd was 16.6 nM.
With B2 the Kd was 0.683 nM.
Work on B6 yielded a Kd of 10 nM.
Binder B8 has a Kd of 431 nM.

Molecular target: B16
Assay: BLI
B3 gave a Kd of 28.2 nM.
B1 showed a Kd of 1.29 nM.
Work on B4 yielded a Kd of 3.63 nM.
Binder B5 has a Kd of 2.85 nM.
With B2 the Kd was 2.58 nM.
With B10 the Kd was 3.7 nM.
For B6, the Kd was 119 nM.
Binder B7 has a Kd of 1130 nM.
B8 gave a Kd of 6.53 nM.
In the case of B19, the Kd is reported as 6.99 nM.

Molecular target: B12
Assay: BLI
B3 showed a Kd of 33.4 nM.
Binder B1 has a Kd of 70 nM.
In the case of B2, the Kd is reported as 70.6 nM.
